B1: full-length SAS-4: in vitro translated full-length C. elegans SAS-4, 35S-labelled (protein)
chain: MASDENIGADGEQKPSRPFLRKGQGTARFRMPRNNKTSAGAPPTSELSSASSPSINVPRFSLSNALPNSARTVDSGISNEDETRPPTTASLPMDQPSLSSSPENRLNPAPSVAEEHGHSGQHAEEEEDNDTDEVSAMPSFVPDEPSTLVNSDHELSDDALKYKNAAAEFKAFERRMDSMRSASTITTSLATPSSCAPSNSSEPPTRSTPIMNDLGVGPNNHNWPSSMQELSGISLETPQARPLGSNRINQLVRSEAQTGISLLQHHERPTVTAPLRRNDMMNSSRQNPQNGNVQDENRPEHVYDQPIHVPGSSLDRQKLEIEIRRHRNLNIQLRDTIAHLDYAEESVHTTKRQLEEKISEVNNFKKELIEEFKKCKKGVEEEFEKKFEKIKEDYDELYEKLKRDQRDLERDQKILKKGTGERNKEFTETIATLRDKLRASETKNAQYRQDIRVRDEKLKKKDEEIEKLQKDGNRLKSTLQTLEKRVKQLRTEKERDDKEKEMFAKVAMNRKTSNPVPPVLNQSVPISITSNGPSRHPSSSSLTTFRKPSTSNRERGVSWADEPNEQSLEAVPQEFLMMPVKEMPGKFGKCTIYRDSLGETSKVTDTIANGLLFEYSNGDLRWVNRQNAVNIYISAVDKTVRIDLPTYNISIIHTFQRQVEVLRPGNNITLISIKRREVRTDLIYQNGMYKTEIFNRDGRYVTKDFSNQEVSRKYNPGTHTYRDNQCRYVLVTDYNDFELVEPEFRLRWYQGDPTGLNNQYILKIIGRPECSEKTLRLEVNLSTCEGTLETAEMIGDKRRKTTLFQWKK
modifications: ^35S-Met labelling
B2: E1235V: human CPAP with MCPH mutation E1235V (cited studies) (protein, UniProt Q9HC77 1-1338, looked up, variant E1235V)
Centrosomal P4.1-associated …: MFLMPTSSELNSGQNFLTQWMTNPSRAGVILNRGFPILEADKEKRAAVDISTSFPIKGTHFSDSFSFINEEDSLLEEQKLESNNPYKPQSDKSETHTAFPCIKKGPQVAACHSAPGHQEENKNDFIPDLASEFKEGAYKDPLFKKLEQLKEVQQKKQEQLKRQQLEQLQRLMEEQEKLLTMVSGQCTLPGLSLLPDDQSQKHRSPGNTTTGERATCCFPSYVYPDPTQEETYPSNILSHEQSNFCRTAHGDFVLTSKRASPNLFSEAQYQEAPVEKNNLKEENRNHPTGESILCWEKVTEQIQEANDKNLQKHDDSSEVANIEERPIKAAIGERKQTFEDYLEEQIQLEEQELKQKQLKEAEGPLPIKAKPKQPFLKRGEGLARFTNAKSKFQKGKESKLVTNQSTSEDQPLFKMDRQQLQRKTALKNKELCADNPILKKDSKARTKSGSVTLSQKPKMLKCSNRKSLSPSGLKIQTGKKCDGQFRDQIKFENKVTSNNKENVTECPKPCDTGCTGWNKTQGKDRLPLSTGPASRLAAKSPIRETMKESESSLDVSLQKKLETWEREKEKENLELDEFLFLEQAADEISFSSNSSFVLKILERDQQICKGHRMSSTPVKAVPQKTNPADPISHCNRSEDLDHTAREKESECEVAPKQLHSLSSADELREQPCKIRKAVQKSTSENQTEWNARDDEGVPNSDSSTDSEEQLDVTIKPSTEDRERGISSREDSPQVCDDKGPFKDTRTQEDKRRDVDLDLSDKDYSSDESIMESIKHKVSEPSRSSSLSLSKMDFDDERTWTDLEENLCNHDVVLGNESTYGTPQTCYPNNEIGILDKTIKRKIAPVKRGEDLSKSRRSRSPPTSELMMKFFPSLKPKPKSDSHLGNELKLNISQDQPPGDNARSQVLREKIIELETEIEKFKAENASLAKLRIERESALEKLRKEIADFEQQKAKELARIEEFKKEEMRKLQKERKVFEKYTTAARTFPDKKEREEIQTLKQQIADLREDLKRKETKWSSTHSRLRSQIQMLVRENTDLREEIKVMERFRLDAWKRAEAIESSLEVEKKDKLANTSVRFQNSQISSGTQVEKYKKNYLPMQGNPPRRSKSAPPRDLGNLDKGQAASPREPLEPLNFPDPEYKEEEEDQDIQGEISHPDGKVEKVYKNGCRVILFPNGTRKEVSADGKTITVTFFNGDVKQVMPDQRVIYYYAAAQTTHTTYPEGLEVLHFSSGQIVKHYPDGRKEITFPDQTVKNLFPDGQEESIFPDGTIVRVQRDGNKLIEFNNGQRELHTAQFKRREYPDGTVKTVYANGHQETKYRSGRIRVKDKEGNVLMDTEL

Key:
[1] = system: SAS-5 N-terminal domain (aa 1–202); assay: Ni-NTA pull-down of 35S-labelled SAS-4 fragments by SAS-5; type: binding, C. elegans; conditions: 25 mM HEPES, 100 mM NaCl, pH 7.4, 4°C, 30 min; SAS-5-6xHis bait on Ni-NTA
Method: SAS-4 constructs were cloned into a pET21a vector for in vitro transcription/translation. Proteins were expressed using the T7 TNT Quick Coupled Transcription/Translation System (Promega, Fitchburg, WI) with ^35S-Met labelling.
SAS-5 fragments were cloned into a pRSET-A vector with a C-terminal 6xHis tag. Proteins were expressed in E. coli Rosetta2(DE3) cells and purified on Ni-NTA agarose (Qiagen) using standard protocols. For pull-down experiments, proteins were dialysed into 25 mM HEPES, 100 mM NaCl, 20 mM imidazole, 1 mM DTT, 10% sucrose, 0.02% Tween-20, pH 7.4.
SAS-5 fragments were pre-incubated with 20 μl Ni-NTA beads for 45 min at 4°C. 10 μl of the SAS-4 IVTT product was added to the beads with 190 μl buffer and incubated at 4°C for 30 min. The beads were washed with 3 × 200 μl buffer and resuspended in 100 μl SDS-PAGE sample buffer. Samples were run on 10% SDS-PAGE gels and either stained with Coomassie or dried and exposed to a phosphor screen overnight. Phosphor screens were analysed on a Personal Molecular Imager System (Bio-Rad, Hercules, CA).

human STIL = conditions: ref Tang et al., 2011; cited from earlier work
From the text: Of particular interest in this regard is the putative centriolar CPAP–STIL complex, as mutations in both components result in MCPH ([Leal et al., 2003]; [Bond et al., 2005]; [Gul et al., 2006]; [Darvish et al., 2010]). CPAP and STIL are strictly required for centriole assembly: STIL at a very early stage ([Stevens et al., 2010b]; [Tang et al., 2011]; [Kitagawa et al., 2011a]; [Arquint et al., 2012]; [Vulprecht et al., 2012]) and CPAP slightly later ([Kirkham et al., 2003]; [Leidel and Gonczy, 2003]; [Basto et al., 2006]; [Kleylein-Sohn et al., 2007]; [Dobbelaere et al., 2008]; [Vulprecht et al ...

[2] = system: centrioles in human cells; conditions: ref Kitagawa et al., 2011a; cited from earlier work
From the text: The structures we report here rev ...

Molecule	interaction with SAS-5 in pull-down [1]	yeast-two-hybrid interaction with STIL (human STIL)	centriole duplication [2]	centriole overgrowth on overexpression [2]	localisation of CPAP to the centriole [2]
B1	interacted specifically with the N-terminal domain (aa 1–202) of SAS-5	–	–	–	–
B2	–	appeared to weaken this yeast-two-hybrid interaction	centriole duplication was compromised by both mutations	able to promote centriole overgrowth to a greater extent than the WT protein	did not effect the localisation of CPAP to the centriole
